Changes are numbered by the printed parent chain. Names may count otherwise. “And” between values parts separate entries of the source, which are not always exact repeats. Equal values may be shown once. Values belong to the binder of their own block, whether it stands above or below them.
Legend:
[1] = molecular target: T1, Cyno TfR extracellular domain (analogous ecd construct) (cynomolgus monkey, UniProt Q5RDH6 87-760 (Pongo abelii entry)); experiment: SPR (Biacore), IgG, TfR captured by anti-His
T1 construct: it is not expressly said to be the cyno construct; also called purified cyno TfR
T1 chain: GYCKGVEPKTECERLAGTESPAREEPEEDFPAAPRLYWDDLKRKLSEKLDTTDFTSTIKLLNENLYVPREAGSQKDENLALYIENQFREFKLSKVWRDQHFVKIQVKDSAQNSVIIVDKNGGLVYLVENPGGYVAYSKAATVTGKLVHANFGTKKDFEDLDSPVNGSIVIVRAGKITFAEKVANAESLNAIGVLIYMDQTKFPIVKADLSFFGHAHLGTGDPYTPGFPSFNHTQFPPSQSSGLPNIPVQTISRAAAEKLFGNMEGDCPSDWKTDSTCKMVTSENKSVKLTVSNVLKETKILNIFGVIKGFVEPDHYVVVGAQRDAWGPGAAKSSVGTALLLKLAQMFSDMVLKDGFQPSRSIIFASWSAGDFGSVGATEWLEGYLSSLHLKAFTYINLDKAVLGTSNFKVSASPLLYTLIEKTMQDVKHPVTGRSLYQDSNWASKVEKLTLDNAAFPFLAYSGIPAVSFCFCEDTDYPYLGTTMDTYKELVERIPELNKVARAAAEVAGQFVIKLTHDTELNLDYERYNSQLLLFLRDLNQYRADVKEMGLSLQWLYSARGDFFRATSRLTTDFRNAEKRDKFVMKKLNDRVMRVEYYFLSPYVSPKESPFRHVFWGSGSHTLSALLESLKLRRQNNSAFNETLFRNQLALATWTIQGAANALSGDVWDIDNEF
Description: (§1) Antibody affinities were measured using surface plasmon resonance (“SPR”) (Biacore™ GE Healthcare). Anti-His antibody (Qiagen) was coupled onto four different flow cells of a BIACORE™ CM5 sensor chip (Biacore, Inc., Piscataway, N.J.) at between 6000 and 8000 RU. Immobilization was achieved by random coupling through amino groups using a protocol provided by the manufacturer. 10×HBS-P (Biacore, Inc., Piscataway, N.J.) was diluted in water and served as the dilution and running buffer. Purified human or cyno TfR was captured, followed by a 3-fold dilution series of IgG or Fab that was injected at a flow rate of […] using the single cycle kinetics method. Affinity constants were determined using a simple 1:1 Langmuir binding model or using a steady state model when kₒₙ or koff was beyond the detection limit. The equilibrium dissociation constant (KD) was calculated as the ratio of […].
(§2) The affinity of humanized variants for human and cyno TfR was determined by SPR as IgG (FIG. 4E). Selected clones were also analyzed by SPR as Fab to assess monovalent affinity (Table 7). In both cases, the SPR experiments were performed as described above.

[2] = molecular target: T1, Cyno TfR extracellular domain …; experiment: SPR, captured His-TfR, Fab analyte
Description: as §1, §2

[3] = molecular target: T2, Human TfR extracellular domain (ecd) containing an N-terminal His tag (human, UniProt P02786 89-760); experiment: SPR, captured His-TfR, Fab analyte
T2 construct: Biotinylated in some ELISAs; also called huTfR; HuTfR
Description: as §1, §2

[4] = molecular target: T1, Cyno TfR extracellular domain …; experiment: ratio of KD on cyno TfR to KD on human TfR, SPR
Description: as §1, §2

[5] = molecular target: T2, Human TfR extracellular domain (ecd) …; experiment: SPR (Biacore), IgG, TfR captured by anti-His
Description: as §1, §2

Kd [1]: 1.2 nM
B1: hu7A4.v5 (antibody, V domains shown)
VH: EVQLVQSGAEVKKPGASVKVSCKASGYTFTDYAMHWVRQAPGQGLEWMGGISTYFGRTNYNQKFKGRVTMTRDTSISTAYMELSRLRSDDTAVYYCARGLSGNYVMDYWGQGTTVTVSS
VL: DIVMTQSPDSLAVSLGERATINCRASESVDSYGNSFMHWYQQKPGQPPKLLIYRASNLESGIPDRFSGSGSGTDFTLTISSLQAEDVAVYYCQQSNEGPPTFGQGTKLEIK

Kd [1]: 12.3 nM
B2: hu7A4.v8 (antibody, V domains shown)
VH: B1 VH with A24G, R72V
VL: B1 VL

Kd [1]: 68.1 nM
Kd [5]: 4.25 nM
B5: hu16F6.v2 (antibody, V domains shown)
VH: EVQLVESGPGLVKPSETLSLTCTVSGNSITSEYAWNWIRQPPGKGLEWIGYISYSGTTSYNPSLKSRVTISRDTSKNQLSLKLSSVTAADTAVYYCARYGYGNPATRYFDVWGQGTLVTVSS
VL: DIQMTQSPSSLSASVGDRVTITCRASKSISKYLAWYQQKPGKAPKLLLYSGSTLQSGVPSRFSGSGSGTDYTLTISSLQPEDFATYYCQQHNEYPWTFGQGTKVEIK

Further lines, the binder ahead of its results:

B3: Hu15G11.HC32A Fab (Fab, V domains shown)
VH: EVQLVQSGAEVKKPGASVKVSCKASGYTFTSAWMHWVRQAPGQRLEWIGEINPTNGRTNYIEKFKSRATLTVDKSASTAYMELSSLRSEDTAVYYCARGTRAYHYWGQGTMVTVSS
VL: DIQMTQSPSSLSASVGDRVTITCRASDNLYSNLAWYQQKPGKSPKLLVYDATNLADGVPSRFSGSGSGTDYTLTISSLQPEDFATYYCQHFWGTPLTFGQGTKVEIK
notes: Purified Fab; also called Y32A Fab
koff [2]: 0.00851 s⁻¹
kon [2]: 177000 M⁻¹ s⁻¹
koff [3]: 0.00178 s⁻¹
kon [3]: 238000 M⁻¹ s⁻¹
Cy/hu ratio [4]: 6.4

B4: Hu15G11.HC52A Fab (Fab, V domains shown)
VH: B3 VH with A32Y, N52A
VL: B3 VL
notes: Purified Fab; also called N52A Fab
koff [2]: 0.0567 s⁻¹
kon [2]: 487000 M⁻¹ s⁻¹
koff [3]: 0.0236 s⁻¹ and 0.0196 s⁻¹
kon [3]: 530000 M⁻¹ s⁻¹ and 564000 M⁻¹ s⁻¹
Cy/hu ratio [4]: 2.6

— patent US20210087288A1 (Genentech, published 2021)
